Measured values from patent US7135457 (CYTOGEN, dated 2006).

T1: human PEPT1 (hPEPT1) receptor domain, amino acid residues 391-571, His-tag fusion protein (human, UniProt P46059 391-571)
T1 construct: Expressed as His-tag fusion, purified under denaturing conditions, coated on plates; not shown: poly-histidine tag (pET His-tag) at the NH2-terminal end
T1 sequence: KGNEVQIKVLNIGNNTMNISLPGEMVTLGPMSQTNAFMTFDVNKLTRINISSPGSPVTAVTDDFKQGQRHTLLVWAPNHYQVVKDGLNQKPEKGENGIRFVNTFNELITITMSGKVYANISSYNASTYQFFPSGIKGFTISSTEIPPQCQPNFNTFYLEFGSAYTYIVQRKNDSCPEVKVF


Assays:
[1] = biological target: T1, human PEPT1 (hPEPT1) receptor domain, …; experiment: phage ELISA, coated hPEPT1 domain
Protocol: (§1) 6.6. Receptor ELISA Procedure 96 well plates were coated overnight with GIT receptor, BSA and, optionally, IDE (insulin degrading enzyme, an irrelevant His-fusion protein) or hTF. The plates were blocked for one hour with 0.5% BSA-PBS. After clarification, the amplified phage were diluted 1:100 in 1% BSA plus 0.05% Tween 20 in PBS and added to the plates. Following incubation of the plates on a rotator for 1 to 2 hours, the plates were washed 5 times with 1% BSA plus 0.05% Tween 20 in PBS. […] After the plates were washed 5 times, as described above, TMB substrate was added to the wells. The plates were read at 650 nm absorbance.

[2] = biological target: T1, human PEPT1 (hPEPT1) receptor domain, …; experiment: phage ELISA, OD on hPEPT1 over OD on BSA
Protocol: as §1

[3] = biological target: T2, human sucrase-isomaltase complex (hSI) receptor domain, amino acid residues 272-667, His-tag fusion protein (human, UniProt P14410 272-667); experiment: phage ELISA, OD on hSI over OD on BSA
T2 construct: Expressed as His-tag fusion, purified under denaturing conditions (urea or guanidine HCl), coated on plates; also called hS1 receptor domain; not shown: poly-histidine tag (pET His-tag) at the NH2-terminal end
T2 sequence (P14410 272-667, one chain of several): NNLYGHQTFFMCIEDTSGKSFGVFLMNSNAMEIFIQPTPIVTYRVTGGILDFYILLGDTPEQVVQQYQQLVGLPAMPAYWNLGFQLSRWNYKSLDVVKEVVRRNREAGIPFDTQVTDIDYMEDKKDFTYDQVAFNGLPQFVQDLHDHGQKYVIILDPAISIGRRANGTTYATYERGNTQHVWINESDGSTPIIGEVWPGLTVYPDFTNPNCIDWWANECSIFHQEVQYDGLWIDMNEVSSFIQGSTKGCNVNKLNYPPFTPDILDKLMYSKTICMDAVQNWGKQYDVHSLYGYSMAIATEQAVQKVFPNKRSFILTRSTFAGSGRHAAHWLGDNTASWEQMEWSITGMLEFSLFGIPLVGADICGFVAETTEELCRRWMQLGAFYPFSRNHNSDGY

[4] = biological target: T2, human sucrase-isomaltase complex (hSI) …; experiment: phage ELISA, coated hSI domain

Row | Binder | OD [1] | PEPT1/BSA [2] | hSI/BSA [3] | OD [4]
1 | RASTQGGRGVAPEFGASVLGRGCGSATYYTNSTSCKDAMGHNYS (pIII and flanks not included) [phage PAX40] | 0.461 OD 650 nm | 6 ratio |  | 
2 | SARDSGPAEDGSRAVRLNGVENANTRKSSRSNPRGRRHP (pIII and flanks not included) [phage P31] | 0.807 OD 650 nm | 11 ratio |  | 
3 | SQVDSFRNSFRWYEPSRALCHGCGKRDTSTTRIHNSPSDSYPTR (pIII and flanks not included) [phage PAX17] | 0.514 OD 650 nm | 5 ratio |  | 
4 | SSKVSSPRDPTVPRKGGNVDYGCGHRSSARMPTSALSSITKCYT (pIII and flanks not included) [phage PAX38] | 0.292 OD 650 nm | 5 ratio |  | 
5 | SSADAEKCAGSLLWWGRQNNSGCGSPTKKHLKHRNRSQTSSSSH (pIII and flanks not included) [phage P90] | 1.12 OD 650 nm | 9 ratio |  | 
6 | SYCRVKGGGEGGHTDSNLARSGCGKVARTSRLQHINPRATPPSR (pIII and flanks not included) [phage PAX15] | 0.301 OD 650 nm | 4 ratio |  | 
7 | RVGQCTDSDVRRPWARSCAHQGCGAGTRNSHGCITRPLRQASAH (pIII and flanks not included) [phage SNi10] |  |  | 11 ratio | 0.57 OD 650 nm
8 | RWCEKHKFTAARCSAGAGFERDASRPPQPAHRDNTNRNA (pIII and flanks not included) [phage PAX43] | 0.345 OD 650 nm | 5 ratio |  | 
9 | SPCGGSWGRFMQGGLFGGRTDGCGAHRNRTSASLEPPSSDY (pIII and flanks not included) [phage SNi34] |  |  | 7 ratio | 0.761 OD 650 nm
10 | SWTRWGKHTHGGFVNKSPPGKNATSPYTDAQLPSDQGPP (pIII and flanks not included) [phage PAX16] | 0.648 OD 650 nm | 4 ratio |  | 
11 | SHSGGMNRAYGDVFRELRDRWNATSHHTRPTPQLPRGPN (pIII and flanks not included) [phage SNi28] |  |  | 8 ratio | 0.942 OD 650 nm
12 | SFLRFQSPRFEDYSRTISRLRNATNPSNVSDAHNNRALA (pIII and flanks not included) [phage PAX18] | 0.416 OD 650 nm | 5 ratio |  | 
13 | RGAADQRRGWSENLGLPRVGWDAIAHNSYTFTSRRPRPP (pIII and flanks not included) [phage SNi38] |  |  | 6 ratio | 0.466 OD 650 nm
14 | RWPSVGYKGNGSDTIDVHSNDASTKRSLIYNHRRPLFP (pIII and flanks not included) [phage PAX9] | 0.312 OD 650 nm | 4 ratio |  | 
15 | SFQVYPDHGLERHALDGTGPLYAMPGRWIRARPQNRDRQ (pIII and flanks not included) [phage PAX45] | 0.419 OD 650 nm | 5 ratio |  | 
16 | RGWKCEGSQAAYGDKDIGRSRGCGSITKNNTNHAHPSHGAVAKI (pIII and flanks not included) [phage 5PAX12] | 0.227 OD 650 nm | 6 ratio |  | 
17 | SRCTDNEQCPDTGTRSRSVSNARYFSSRLLKTHAPHRP (pIII and flanks not included) [phage PAX46] | 0.429 OD 650 nm | 6 ratio |  | 
18 | RTFENDGLGVGRSIQKKSDRWYASHNIRSHFASMSPAGK (pIII and flanks not included) [phage PAX14] | 1.1 OD 650 nm | 8 ratio |  | 
19 | RSGAYESPDGRGGRSYVGGGGGCGNIGRKHNLWGLRTASPACWD (pIII and flanks not included) [phage S15] |  |  | 9 ratio | 0.478 OD 650 nm
20 | RSITDGGINEVDLSSVSNVLENANSHRAYRKHRPTLKRP (pIII and flanks not included) [phage PAX35] | 0.474 OD 650 nm | 7 ratio |  | 
